Target: human Hsp90β (HSP90AB1) (human, UniProt P08238 1-724)
Test: ITC

Chain of human Hsp90β (HSP90AB1) (P08238 whole entry): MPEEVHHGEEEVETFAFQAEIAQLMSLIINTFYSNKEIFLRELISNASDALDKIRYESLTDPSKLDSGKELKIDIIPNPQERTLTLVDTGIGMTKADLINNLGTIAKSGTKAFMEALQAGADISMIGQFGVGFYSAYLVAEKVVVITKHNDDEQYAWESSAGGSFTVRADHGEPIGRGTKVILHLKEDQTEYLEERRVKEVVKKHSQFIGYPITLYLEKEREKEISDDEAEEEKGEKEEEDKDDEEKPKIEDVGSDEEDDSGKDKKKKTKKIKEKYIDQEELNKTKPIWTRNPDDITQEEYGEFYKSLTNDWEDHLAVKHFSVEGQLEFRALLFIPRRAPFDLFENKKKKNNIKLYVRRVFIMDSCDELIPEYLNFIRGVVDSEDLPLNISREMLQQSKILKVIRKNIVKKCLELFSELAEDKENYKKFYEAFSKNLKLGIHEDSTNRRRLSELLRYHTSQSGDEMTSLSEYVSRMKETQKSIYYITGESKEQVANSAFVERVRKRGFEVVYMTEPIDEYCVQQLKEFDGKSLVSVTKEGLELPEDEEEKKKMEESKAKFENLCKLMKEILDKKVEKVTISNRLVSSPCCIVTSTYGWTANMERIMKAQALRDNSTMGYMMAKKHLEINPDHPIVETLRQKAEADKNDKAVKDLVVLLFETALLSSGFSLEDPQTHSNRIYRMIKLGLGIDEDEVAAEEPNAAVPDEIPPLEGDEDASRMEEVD

Kd: 3.59 µM | stoichiometry N: 0.5
B1: Hop112a (Hop aa. 1-352; TPR1, DP1 and TPR2A) (domain or fragment)
chain: not shown

Source: article PMC7679967 (Protein Science : A Publication of the Protein Society, 2020)
